The values that follow are results of earlier work, collected in paper PMC6323488.

The data set addresses EGFR (Homo sapiens) (UniProt P00533).

For orientation: Kd means the constant that tells how readily two partners part at equilibrium. CTGF (from UniProt P29279): the equilibrium dissociation constant (Kd) is 126 nM.
